In paper PMC8954794, “NMR Structure and Biophysical Characterization of Thermophilic Single-Stranded DNA Binding Protein from Sulfolobus Solfataricus”:

Target: T1, SsoSSB1-114 (Sulfolobus solfataricus, UniProt Q97W73 1-114)
T1 sequence: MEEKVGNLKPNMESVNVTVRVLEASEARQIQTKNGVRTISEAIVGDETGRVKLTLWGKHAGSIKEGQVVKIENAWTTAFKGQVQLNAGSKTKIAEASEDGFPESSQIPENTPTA
Test: ITC; 25 C; n = 1.009; Buffer A: 100 mM NaCl, 20 mM MES pH 6.5; ITC at 25 C (500 uM dA15 into 50 uM protein); NMR with 10% D2O at 25 and 50 C (SsoSSB12-114 at 25 C only)
Settings: protein: recombinant; tags: C-terminal TEV-His6 vector; single strand

## AAAAAAAAAAAAAAA (ssDNA) [dA(15)]
  Kd: 1750 nM
